Publication PMC4052767 (Genes & Development, 2014)
Entries after “also recorded” stand apart in the source; their conditions may differ.

B1: recombinant human: recombinant human Hat1 (protein, UniProt O14929 2-419, looked up)
Histone acetyltransferase …: AGFGAMEKFLVEYKSAVEKKLAEYKCNTNTAIELKLVRFPEDLENDIRTFFPEYTHQLFGDDETAFGYKGLKILLYYIAGSLSTMFRVEYASKVDENFDCVEADDVEGKIRQIIPPGFCTNTNDFLSLLEKEVDFKPFGTLLHTYSVLSPTGGENFTFQIYKADMTCRGFREYHERLQTFLMWFIETASFIDVDDERWHYFLVFEKYNKDGATLFATVGYMTVYNYYVYPDKTRPRVSQMLILTPFQGQGHGAQLLETVHRYYTEFPTVLDITAEDPSKSYVKLRDFVLVKLCQDLPCFSREKLMQGFNEDMVIEAQQKFKINKQHARRVYEILRLLVTDMSDAEQYRSYRLDIKRRLISPYKKKQRDLAKMRKCLRPEELTNQMNQIEISMQHEQLEESFQELVEDYRRVIERLAQE
B2: Hat2p: WD40 repeat protein, binding partner of Hat1p (protein)
chain: MENQEKPLSVDEEYDLWKSNVPLMYDFVSETRLTWPSLTVQWLPTPVQELDGGFIKQELIIGTHTSGEEENYLKFAEINLPKEILSNEDPQEEAGEEYQSSLPAPRSNIRITAKYEHEEEITRARYMPQDPNIVATINGQGTVFLYSRSEGLQSTLKFHKDNGYALSFSTLVKGRLLSGSDDHTVALWEVGSGGDPTKPVRTWNDLHSDIINDNKWHNFNKDLFGTVSEDSLLKINDVRANNTTIDTVKCPQPFNTLAFSHHSSNLLAAAGMDSYVYLYDLRNMKEPLHHMSGHEDAVNNLEFSTHVDGVVVSSGSDNRLMMWDLKQIGAEQTPDDAEDGVPELIMVHAGHRSSVNDFDLNPQIPWLVASAEEENILQVWKCSHSLPIVGGPPKVNKDIIS
modifications: left off: 6xHis, N-terminal, kept
B3: RbAp46: human homolog of Hat2p, retinoblastoma-binding protein (protein, UniProt Q16576 2-425, looked up)
Histone-binding protein RBBP7: ASKEMFEDTVEERVINEEYKIWKKNTPFLYDLVMTHALQWPSLTVQWLPEVTKPEGKDYALHWLVLGTHTSDEQNHLVVARVHIPNDDAQFDASHCDSDKGEFGGFGSVTGKIECEIKINHEGEVNRARYMPQNPHIIATKTPSSDVLVFDYTKHPAKPDPSGECNPDLRLRGHQKEGYGLSWNSNLSGHLLSASDDHTVCLWDINAGPKEGKIVDAKAIFTGHSAVVEDVAWHLLHESLFGSVADDQKLMIWDTRSNTTSKPSHLVDAHTAEVNCLSFNPYSEFILATGSADKTVALWDLRNLKLKLHTFESHKDEIFQVHWSPHNETILASSGTDRRLNVWDLSKIGEEQSAEDAEDGPPELLFIHGGHTAKISDFSWNPNEPWVICSVSEDNIMQIWQMAENIYNDEESDVTTSELEGQGS
B4: W197E (protein)
chain: MSANDFKPETWTSSANEALRVSIVGENAVQFSPLFTYPIYGDSEKIYGYKDLIIHLAFDSVTFKPYVNVKYSAKLGDDNIVDVEKKLLSFLPKDDVIVRDEAKWVDCFAEERKTHNLSDVFEKVSEYSLNGEEFVVYKSSLVDDFARRMHRRVQIFSLLFIEAANYIDETDPSWQIYWLLNKKTKELIGFVTTYKYEHYLGAKSFDEDIDKKFRAKISQFLIFPPYQNKGHGSCLYEAIIQSWLEDKSITEITVEDPNEAFDDLRDRNDIQRLRKLGYDAVFQKHSDLSDEFLESSRKSLKLEERQFNRLVEMLLLLNNS
modifications: left off: GST (from the vector pGEX6p-1), end not stated, cleaved
B5: Hat1p/Hat2p complex: yeast histone acetyltransferase complex Hat1p/Hat2p (protein)
chain 1: MSANDFKPETWTSSANEALRVSIVGENAVQFSPLFTYPIYGDSEKIYGYKDLIIHLAFDSVTFKPYVNVKYSAKLGDDNIVDVEKKLLSFLPKDDVIVRDEAKWVDCFAEERKTHNLSDVFEKVSEYSLNGEEFVVYKSSLVDDFARRMHRRVQIFSLLFIEAANYIDETDPSWQIYWLLNKKTKELIGFVTTYKYWHYLGAKSFDEDIDKKFRAKISQFLIFPPYQNKGHGSCLYEAIIQSWLEDKSITEITVEDPNEAFDDLRDRNDIQRLRKLGYDAVFQKHSDLSDEFLESSRKSLKLEERQFNRLVEMLLLLNNS
chain 2: MENQEKPLSVDEEYDLWKSNVPLMYDFVSETRLTWPSLTVQWLPTPVQELDGGFIKQELIIGTHTSGEEENYLKFAEINLPKEILSNEDPQEEAGEEYQSSLPAPRSNIRITAKYEHEEEITRARYMPQDPNIVATINGQGTVFLYSRSEGLQSTLKFHKDNGYALSFSTLVKGRLLSGSDDHTVALWEVGSGGDPTKPVRTWNDLHSDIINDNKWHNFNKDLFGTVSEDSLLKINDVRANNTTIDTVKCPQPFNTLAFSHHSSNLLAAAGMDSYVYLYDLRNMKEPLHHMSGHEDAVNNLEFSTHVDGVVVSSGSDNRLMMWDLKQIGAEQTPDDAEDGVPELIMVHAGHRSSVNDFDLNPQIPWLVASAEEENILQVWKCSHSLPIVGGPPKVNKDIIS
modifications: left off: 6xHis, N-terminal, state not stated
B6: Hat1p: yeast Hat1p (1–320), type B histone acetyltransferase (protein)
chain: MSANDFKPETWTSSANEALRVSIVGENAVQFSPLFTYPIYGDSEKIYGYKDLIIHLAFDSVTFKPYVNVKYSAKLGDDNIVDVEKKLLSFLPKDDVIVRDEAKWVDCFAEERKTHNLSDVFEKVSEYSLNGEEFVVYKSSLVDDFARRMHRRVQIFSLLFIEAANYIDETDPSWQIYWLLNKKTKELIGFVTTYKYWHYLGAKSFDEDIDKKFRAKISQFLIFPPYQNKGHGSCLYEAIIQSWLEDKSITEITVEDPNEAFDDLRDRNDIQRLRKLGYDAVFQKHSDLSDEFLESSRKSLKLEERQFNRLVEMLLLLNNS

Columns and labels:
histone H4 (H4K5, H4K12) [1] = details: no ref printed in the sentence; cited from earlier work
histone H4 (H4K5, H4K12) [2] = details: cited from earlier work; for enhancement of enzymatic activity of Hat1p: by facilitating H4 association with Hat1p; for enhancement of enzymatic activity of Hat1p / acetylation site specificity on H4 (literature): ref Parthun et al. 1996; for acetylation site specificity on H4 (literature): in vitro, complex purified from yeast extracts or recombinant yeast Hat1p
hat1Δ yeast = assay: DNA damage sensitivity assay; format: cell-based; details: synthetic medium in the absence or presence of methyl methane sulfonate (MMS); H3K9,14R allele as sole H3; Supplemental Fig. S4
[3] = test system: histone H4 in nucleosomes; details: ref Kleff et al. 1995; Parthun et al. 1996; cited from earlier work

| Molecule | enhancement of enzymatic activity of Hat1p (histone H4 (H4K5, H4K12) [2]) | acetylation site specificity on H4 (literature) (histone H4 (H4K5, H4K12) [2]) | also measured |
| --- | --- | --- | --- |
| B1 | – | – | acetylation of H4K5 and H4K12 (recombinant human Hat1, literature) (histone H4 (H4K5, H4K12) [1]): can acetylate both H4K5 and H4K12 |
| B2 | significantly enhanced the enzymatic activity of Hat1p | – | – |
| B3 | significantly enhanced the enzymatic activity of Hat1p | – | – |
| B4 | – | – | complementation of DNA damage sensitivity in hat1Δ yeast (hat1Δ yeast): able to complement the DNA damage sensitivity in the hat1Δ yeast |
| B5 | – | specifically acetylated H4K12 residue; also recorded: highly specific for H4K12 | – |
| B6 | – | not only able to acetylate H4K12 but also exhibited low activity to H4K5; also recorded: acetylated both H4K5 and H4K12 in vitro | acetylation of H4K5 and H4K12 (recombinant yeast Hat1, literature) (histone H4 (H4K5, H4K12) [2]; recombinant yeast Hat1, no ref printed in the sentence): can acetylate both H4K5 and H4K12; acetylation of histone H4 in nucleosomes [3]: cannot acetylate histone H4 in nucleosomes |
